Reference: the supplement of paper PMC12042874
± gives the uncertainty stated by the source.

Assay: amyloid nucleation score (Sup35N fusion, yeast selection) (log enrichment); library NNK2; higher = more nucleation; inactive = no reads after selection
Summary of the method: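 Sup35N fusions to peptides of 20 random codons were expressed in psi-negative yeast, induced 24 hours with 100 μM copper sulfate, and grown 7 days at 30°C on medium lacking adenine and uracil. Input and output plasmid inserts were sequenced by Illumina. The nucleation score is the DiMSum log enrichment of output over input reads, centred on the mode score of non-aggregating sequences. Sequences with under 100 input reads were excluded.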

Row | Substance | amyloid nucleation score
1 | IQYPLFSCTYEGFFGDRYMA | -0.495 ± 0.55
2 | AYLPHAHTT | -0.154 ± 0.33
3 | CDYYLFLCIYRSQNVGTEGG | 6.783 ± 0.063
4 | SGLPMYCSYRYHSRLGNTYR | 2.92 ± 0.064
5 | LCNYLFSFEQMRNN | -0.124 ± 0.42
6 | NSNLLNTLFWVVT | 4.03 ± 0.13
7 | SILDATCCLGFYKVFAVGMK | -0.669 ± 0.44
8 | MTKRG | 0.187 ± 0.41
9 | ISYSVKPLYFVSRVRTVNLG | 4.13 ± 0.078
10 | IPFIRMFVSFNNLQSISIPD | 5.534 ± 0.033
11 | VFSGGSPWWVANMRGAPKLL | 0.94 ± 0.2
12 | GPCDQSWAT | 1.06 ± 0.19
13 | HRHFCSLDGA | 0.076 ± 0.29
14 | FPLDIKGKWDVGNMEGKVVE | 0.486 ± 0.41
15 | FFDIVIAERLTVLHVSVVSK | 4.59 ± 0.074
16 | TVDNPSNSFTFFRVYQLYVR | 3.11 ± 0.14
17 | WARFEKV | inactive
18 | SARFCIWVYVSNGNNGMRCV | 3.52 ± 0.04
19 | DRYNHKSSMIREVRLLIASY | -0.123 ± 0.76
20 | FCRLLPSLCTTNLK | -0.663 ± 0.76
21 | GVMSPHVTTFNILCVNNVLC | 8.72 ± 0.07
22 | CSWLLTH | -0.461 ± 0.48

Row | Substance | amyloid nucleation score
23 | VLMASSLITVSICVPRTWAY | 6.172 ± 0.041
24 | CLVDGLANVHVYRENLGF | -0.841 ± 0.29
25 | NRKCSAESMTEGVRPLDSHY | inactive
26 | LHQGSVCWDWLPVYEVTVLG | 0.049 ± 0.44
27 | QTTVHLTSLHMAGSLCV | -0.021 ± 0.79
28 | GMNAAGEVWVRGWTSGCMVY | 0.225 ± 0.5
29 | YLPPNKNWFFVWVDFSSWVF | -0.627 ± 0.61
30 | LKIFLLIVVGDDFMKSKYCP | -0.612 ± 0.64
31 | EQSNSNPSHKY | inactive
32 | LYEVLESVMIGI | -0.097 ± 0.6
33 | IKHVEDASGKRTDSRLFTRD | -0.545 ± 0.54
34 | RLNLGYYKEAVYN | -1.65 ± 0.63
35 | IKYSVVNRHRVGLSVTAKW | -0.205 ± 0.37
36 | YLNVNNSQDNESAYVFDKVV | 0.058 ± 0.74
37 | IRYPIPWFY | inactive
38 | FYIMFLVRCYKDEPSTRANL | -0.796 ± 0.62
39 | SHAIHRCVGWFGVWTGTLFI | 3.69 ± 0.083
40 | HIRGVIVGRAPDRCI | inactive
41 | RTSKGAA | 1.21 ± 0.45
42 | STALAFYP | inactive
43 | SKNDCRVFPSDMHFWHDLVE | 0.351 ± 0.44
44 | YVRYGP | -0.289 ± 0.26

Row | Substance | amyloid nucleation score
45 | GTRYILVKGTMGYDLCYFLG | 2.69 ± 0.13
46 | PQVNPYLNLCRLTQDMLLHR | 0.832 ± 0.15
47 | FSDWIWTYCSQSFNGQE | -0.817 ± 0.76
48 | SFAAMLVSSKVVGWVTGRAT | 1.68 ± 0.21
49 | RSLDIARAY | -1.06 ± 0.4
50 | HNKVLGSSHHKLRQIPTCMC | 0.484 ± 0.8
51 | NSYFGRAFNVSMPYKLRWKF | -1.41 ± 1.1
52 | VKWACNMLSI | -0.676 ± 0.48
53 | MWRGQCV | 1.06 ± 0.24
54 | AVLFRRVAFRHNWPW | 0.995 ± 0.68
55 | LIKLMGLV | 0.466 ± 0.43
56 | WRHSVVMYNWKIGHCVGDYW | 0.718 ± 0.18
57 | MFLYTVTNARFYEWW | 0.102 ± 0.61
58 | NDHLGVS | 3.69 ± 0.059
59 | SDICTLAEQSGASIRDRLTL | -0.284 ± 1.1
60 | MYYASIIEKYLYRNDLVGVG | 0.269 ± 0.33
61 | LWHHIHSDLMTIYFVLDSSG | inactive
62 | SRFRA | 0.357 ± 0.27
63 | MYPIWNQCSSWNEVVLNGCR | 0.159 ± 0.4
64 | ASSTNVYLIIIGLWSAAM | 2.46 ± 0.18
65 | KICWYQFKANMASQ | 4.41 ± 0.086
66 | ASSRFDDVINDRIRILVCAV | -0.102 ± 0.49

Row | Substance | amyloid nucleation score
67 | SVCSKSGNFYGVVNMGL | -0.161 ± 0.79
68 | RLLLEDASIVGLIITYYLMF | 0.085 ± 0.8
69 | IDPLKGMLD | -2 ± 0.78
70 | YDYYLMVISFRFVNFYNGVG | inactive
71 | MGLMNCSYSVKKQAAVIRTD | 0.06 ± 0.17
72 | SCAIELLVQNNSEHLRLITI | -0.266 ± 0.3
73 | NRTCVLSNPFPFPHNIPGVC | -0.815 ± 0.54
74 | NVMKSLFGRC | 0.359 ± 0.48
75 | ICTFYDTGLWVIYSVTRKAR | -0.057 ± 0.65
76 | ERMFNMIALVRRAGGERNRT | 4.43 ± 0.059
77 | VCFNWRHYATRLSDERWLRS | 1.1 ± 0.52
78 | DLVRYFC | 4.26 ± 0.055
79 | GKDGRVFGSEAYWMEGKRKW | 0.235 ± 0.8
80 | WLRNWGYAFGPRQNYNCCRV | -0.569 ± 0.49
81 | CWCSLRRFTMLCNMRMNWDN | 1.91 ± 0.086
82 | TASIDKRVTGSSREWWRSRQ | 0.357 ± 0.66
83 | MSGAFVYAWCLRTGKCTQAG | -0.082 ± 0.27
84 | NFAVLYYIFVHIWLQCSNSE | -0.969 ± 0.41
85 | YSFCWLYNYPFIFYGFAFED | 5.951 ± 0.056
86 | GSSNASVATGFVHIKEVKGG | 0.461 ± 0.8
87 | EARVSDSVFGLVVVKTMCYV | 5.535 ± 0.043
